The numbers were not newly measured in patent EP1666054A1, “Method for administering insulinotropic peptides” (priority 1998, dated 2006), which cites them from elsewhere.

The conditions of this data set: pulmonary delivery; calculated, background statement.

On to parathyroid hormone (1-34), for which the “Absorption values (delivered through the lungs)” value is recorded as “fifteen”.
